The nature of the data set: soluble on expression in E. coli; label from the status in PepcDB or PDB records.
For the sequence “MGSSHHHHHHSSGLVPRGSHMNIPRFGVKTDQEELLAQELENLNKWGLNIFCVSDYAGGRSLTCIMYMIFQERDLLKKFRIPVDTMVTYMLTLEDHYHADVAYHNSLHAADVLQSTHVLLATPALDAVFTDLEILAALFAAAIHDVDHPGVSNQFLINTNSELALMYNDESVLENHHLAVGFKLLQEDNCDIFQNLSKRQRQSLRKMVIDMVLATDMSKHMTLLADLKTMVETKKVTSSGVLLLDNYSDRIQVLRNMVHCADLSNPTKPLELYRQWTDRIMAEFFQQGDRERERGMEISPMCDKHTASVEKSQVGFIDYIVHPLWETWADLVHPDAQEILDTLEDNRDWYYSAI”, the “soluble on expression in E. coli” value is listed as “soluble”.
Regarding “MEGPLSKWTNMVHGWQYRWFKIENDTLLYYTSREKMLKGQQRGQIRLTGAVVGIDGENNSLFTITVEGKTFHMQGRDLRERNQWVRILENSIRASSGYAKNVSVGTTPSQHFKQRTEEANEFLKTLVEKVKALEQLKSGERAVDEKKTIDSLIAASNNLTNNVKHAIIYLQMAQARLDPNMKTEKLMFTHPDLNEKPSSRETPGTVSDSTQTSTDKPISGIQHLDHLKPQRAESYASSDEEEFYDADEELIDLDNFESEKSGQESGDSNRTSDAAIMSSDEDGYDFGDSNEDFDEIYNNAEEHDIGNVQQDHGSVLMHLLSQVSVGMDLTKVTLPTFILERRSLLEMYADFFAHPDLFIATNGNDSAEKRMIAVVRYYLNSFYAARKSGVAKKPYNAILGETFRCRYSVPNSSLSGKKTESGPWPGSDEKQLTFIAEQVSHHPPISAFYAEMPSEGISFNAHIYTKSSFLGLSIGVASIGEGILTLHNYGDEQYTITFPSGYGRSIMSTPWFEFGGKVKVECEKTGYRADIEFLTKPFFGGKPHRIQGSICRDGAKKPVLTLRGEWNGTMYAKTQNGEEYVFVDVKAKPEVKKECVPVMQQGKRESRRLWRHVTAALLRNRIQTATTSKRFIEQRQRKEAKERLESGEKWTPLLFDTTDKDGEWMYKQKFGVRKAV”, the “soluble on expression in E. coli” value was “not soluble”.
Consider “MKKEANFDEVLFSLGQEVIQVLIRRGASLEDAQDAVSQTYTTIFSILPEITSENLRPWFFRVTFNYYITMYRKKKRERTFVANSHPVQSIEKMEGQELLLLIDSLKDEEQELVLLKYYYQLSYAEIALILELSVENVRKKLYRTRQKLKKELEE”, for which the “soluble on expression in E. coli” value was “not soluble”.
For “LKVREDENNPFYFRSSNSFQTLFENQNGRIRLLQRFNKRSPQLENLRDYRIVQFQSKPNTILLPHHADADFLLFVLSGRAILTLVNNDDRDSYNLHPGDAQRIPAGTTYYLVNPHDHQNLKMIWLAIPVNKPGRYDDFFLSSTQAQQSYLQGFSHNILETSFHSEFEEINRVLFGEEEEQRQQEGVIVELSKEQIRQLSRRAKSSSRKTISSEDEPFNLRSRNPIYSNNFGKFFEITPEKNPQLRDLDIFLSSVDINEGALLLPHFNSKAIVILVINEGDANIELVGIKEQQQKQKQEEEPLEVQRYRAELSEDDVFVIPAAYPFVVNATSNLNFLAFGINAENNQRNFLAGEKDNVVRQIERQVQELAFPGSAQDVERLLKKQRESYFVDAQPQQKEEGSKGRKGPFPSILGALY” the value was “soluble”.
The result for “DFKLDFKDIKGQEKAKRACMIAALGMHNILFEGSPGSGKSMCAKRLVYIMPPQSLSEILMQNAYMSLDSKDCEFTKIRAFRHPHHTSTRASIFGGGTKNARIGEVALANGGVLFFDEFPHFNKQIIESLREPLEDHKIHISRVNSKITYETKFSFIAAQNPCPCGNL” reads “not soluble”; that for “TKDFTWTTDFNIAFNNNKITSYPQKEEVVGTKIRTVGYSIYEFYMQEWAGVDPVNGDPLWYMDVTDDKGNPTGERTTTNTYSKATKYKLGSALPSATGGLTNTVSWKGVDFSFMFTYGFGGKIYDVYEENLLNDGNKTGYQLITEQADSWTPENTNASNPKFIPNNSNTSNGRSSRYLHNADFIKLKNISLGYSLPKSLIKKNLLQNVRIYVSADNLITWNLDKKFKSYDVELGGVDGLLDGGGTVPLARTFTAGINLTF”, “not soluble”; that for “FIKLPEFKLNYHNKSYRQYGRGFALQNTNFRPGSSGTLMLNNQKQIAGIYFGVLDFGEDVSLMSNIGVGQILRVPQKNNTRNR”, “not soluble”.
The result for “MGSDKIHHHHHHMKGFITNIQRMSIHDGPGIRSTIFLKGCNLRCKWCHNPETWSMKPQLQYIEDKCIHCFSCITVCEYEVLFIDSNRLSIHRERCTDCGKCTERCTSGALSWIGKEVDSSDIIHEILQDLIYYQKSGGGITLSGGEPLQQKDFALDILQKCREHRIHTAVETNLLTDVNTLEAFLPWVDLWMCDFKMADDTLHRKWTGHSNVPIIKNLEFLAKQAVPLTIRTPVIPNVNDSEEAIESICRFIRQLPNQPAYELLGFHSLGFVKFENLGMKNPLSNSAFLKKGQLQKLKEILIRYNLNNNKK” reads “not soluble”; that for “GSHMTETVPLILLVPKSRREDLEKAQLAERLRSQFFIDYGVRLPEVLLRDGEGLDDNSIVLLINEIRVEQFTVYFDLMRVVNYSDEVVSFGINPTIHQQGSSQYFWVTHEEGEKLRELGYVLRNALDELYHCLAVTLARNVNEYFGIQETKHMLDQLEAKFPDLLKEVLRHATVQRISEVLQRLLSERVSVRNMKLIMEALALWAPREKDVINLVEHIRGAMARYICHKFANGGELRAVMVSAEVEDVIRKGIRQTSGSTFLSLDPEASANLMDLITLKLDDLLIAHKDLVLLTSVDVRRFIKKMIEGRFPDLEVLSFGEIADSKSVNVIKTI”, “soluble”.
With “MAHHHHHHMKTFRYLTITGDTITLRRGARHVMHLLLTLERAPYDTRLNLEFVSLAHMRQLNYKYKGLDRPTDVLTFAPAGEADSFVNDLLFGDFLERGDGDKGTGATLTASPTCAAAVGAGPNALTQSIIRGELVDLGNIFVSLDYMRLRCRRYPSTTLPLAPYLHAALVHATLHALGYDHTSRALLQQMARREQQLGRQLAMIARQHPRCLPPLNIWDSM”, the “soluble on expression in E. coli” value is listed as “not soluble”.
The result for “SAALRYAGLDDTDSEDELPPGWEERTTKDGWVYYANHTEEKTQWEHPKTGKRKRVAGDLPYGWEQETDENGQVFFVDHINKRTTYLDPRLAFTVDDNPTKPTTRQRYDGSTTAMEILQGRDFTGKVVVVTGANSGIGFETAKSFALHGAHVILACRNMARASEAVSRILEEWQQGAATTVYCAAVPELEGLGGMYFNNCCRCMPSPEAQSEETARTLWALSERLIQERLGSQSG” reads “soluble”; that for “MSLHLSNVILHQLCKNDQDELVVKLRPASLENDASTENLVAELHRVFHSKAGKGFGSFQSDSEFQFWLQEMRKGERDFYDFSQISANRLKEELIKYPFADEGILVFAEYQSLATDYLFIGILPMNQSLKVTEGLDISATDYLDITKMDIAARIDLSSYETDKESNRYLQYIKGRVGRKVADFFLDFLQADIGLDTKQQNLVLMQAVDDFCADSKLEKQEVNEYKKQVYNYCNEQIKSGEEVQISELSGELPPSQDGTSFMDFTKEQGYELEESFPGDRSTVRKLTKYVGAGGGLNISFDSLLLGERIFYDPETDTLTIKGTLEHHHHHH”, “not soluble”; that for “MNYRIIPVTAFSQNCSLIWCEQTRLAALVDPGGDAEKIKQEVDDSGLTLMQILLTHGHLDHVGAAAELAQHYGVPVFGPEKEDEFWLQGLPAQSRMFGLEECQPLTPDRWLNEGDTISIGNVTLQVLHCPGHTPGHVVFFDDRAKLLISGDVIFKGGVGRSDFPRGDHNQLISSIKDKLLPLGDDVIFIPGHGPLSTLGYERLHNPFLQDEMPVW”, “soluble”.
Turning to “MLSKPMELLRPSKGMINVHPIQRGGILTEEARKVLLEWGDGYSMCDICLEGRVDLLDKPPVKRFKEEVAEFLGMDEVRFTAGARHAKFVAMSGFKGALVVDSLAHYTTYIAAELNGLRVYEVPNTGYPEFRIEAESYTDVFEKVKEETGDYPAVALLTHADYKYGNLADAKKVAEICRDYGIPLILNTAYTSGIMEVSGRETGCDFIVASGHKSWAATAPIGILATTFEFAERVFRVSEVRGNWSGRAFTKKEVALFGCSPVYGLPLVTLMASFPVVKERVKRWKEEVEKARWFVEEMEKIEGVMLLGERPKNHTLMNFETPSFNLIAKKHRRKGYFLYHELKERGIFGVQPGMTRNVKLNVYGLSWEEVERVAEAFKEIAEKYGLEVED”, the “soluble on expression in E. coli” value is on record as “not soluble”.
For “MNRAEKREFVTWLNEAFRKSGSVIVAHYSGLTVSQMNDLRSKMSEAGGAIKVAKNRLAKIALQGTESESIVDLFSGQTLIAYSEDPITAPKVAVDFAKTNDKFVILGGSMGATSLSVDAVKSLASLPSLNELRAKLVGMISTPATRIAQVVNAPAGQVVRVIGAYAQEGKAA” the value was “not soluble”; for “MSLKPNIQFEITGASRILPASGPITNLEILKNFPRTADKSQGFLEKFAEKIGEEFGFHTRYWCHKPWESLDNSRELSSESLAMQAVDKLITHSMSKDVDAFLLGSTTNKRFTGSQAAAVLGNLKLNAPAYDLKTGCSTSLSTLHFAYALMALGYQKILVCCSETLSKVIDPENEKTWIGLADGAASLLLEKSKEGSFTIEKSFFSTDGQYVNAFTTQGVFPPTHEQIDSVGYHLVGDETLMKELAYSRYMQMLDHLLPTEKEKNEITWVIPHQVNRKLIDQVLHENNLNNKIIIWDADTIGNIGGASVLYTLARAVEEKLFDRSGKILLMSVGGGLSYAGQVLNYQEGHHHHHH”, “soluble”.
For “GPGSMQQSLIPGHNNNRHLTYDEVENNIGGLPVTDNRIQDLFDSLDVDHSGTVSVEVVKKFYMGLEHYGVDLSDKELDEMVRKYAATHDESLSYEEFACFVLSLAQW” the value was “soluble”; for “MQQLKAKSLEMRTPQATKTAVLVIGGAEDKVHGREILRTFVARAGASKAYITIIPSASREPAIIGGRYIRIFEEMGAEKVEILDIREREQCDSSQIKASLEACTGVFLTGGDQLRLCGVLSDTAAMDIIRQRVRAGQLTLAGTSAGAAVMGHHMIAGGGSGETPNRSLVDMATGLGFIPEVIVDQHFHNRNRMGRLVSAIAAHPDRLGIGIDEDTCAVFERDGWLQVMGKGSVTIVDPTELTHTNEPLVSANEPLTVHNLRLHILSYGDRFHLYQRTVLPAVHRISS”, “soluble”; for “MAHHHHHHMPCRKIIIDTDCGGDDAIGIMTALADPNTDVIAMTAVWGNVNVNQGMENIGKLLDVFERDIPFYKGAEAPLVSDPETVQWGGFGKDGFGDADFPPSARVLVQSKTHAALAITELLRAAKPDEDAVYQLVCLGPLTNIALAMRLDPEVFHVLGSETEPAITIMGGASEAKGNSNLTSEFNMHCDPEAAYIVFNQRSMRPVRVVSWEVTVDCSMTWTFFDKWIGRQENGKKQQNRFQVFIEKVFQRLETFTRPLPDGTKANTGDAEATQDNTCVIPDAVAVVAALYPESILDRFITYCTVELHGRETRGQTCLDWYGTKQSMAKRGRWCNCELITRVDNARFLEAMNGILEYNV”, “not soluble”.
For “MEAKAIARYVRISPRKVRLVVDLIRGKSLEEARNILRYTNKRGAYFVAKVLESAAANAVNNHDMLEDRLYVKAAYVDEGPALKRVLPRARGRADIIKKRTSHITVILGEKHGK” the value was “soluble”; for “MKIAVLGATGRAGSAIVAEARRRGHEVLAVVRDPQKAADRLGATVATLVKEPLVLTEADLDSVDAVVDALSVPWGSGRGYLHLDFATHLVSLLRNSDTLAVFILGSASLAMPGADHPMILDFPESAASQPWYDGALYQYYEYQFLQMNANVNWIGISPSEAFPSGPATSYVAGKDTLLVGEDGQSHITTGNMALAILDQLEHPTAIRDRIVVRDADLEHHHHHH”, “soluble”; for “MTVIIKSMETPEEIEGKSFVHWQTWREAYDDLLPAEFQETMTLERCRLFSQKYPENTLIAMDGVKIVGFISYGNCRDETIQAGEIIALYVLKDYYGKGIAQKLVKAALTDLNHFSEIFLWVLKDNKRAIAFYQKMGFTFDGQEKILELGKPIKEKRMVFYSK”, “not soluble”.

Source of the values: the DeepSol protein solubility set.
